# B1: Complement factor H (Homo sapiens), P08603 (parent)
# chain: MRLLAKIICLMLWAICVAEDCNELPPRRNTEILTGSWSDQTYPEGTQAIYKCRPGYRSLGNVIMVCRKGEWVALNPLRKCQKRPCGHPGDTPFGTFTLTGGNVFEYGVKAVYTCNEGYQLLGEINYRECDTDGWTNDIPICEVVKCLPVTAPENGKIVSSAMEPDREYHFGQAVRFVCNSGYKIEGDEEMHCSDDGFWSKEKPKCVEISCKSPDVINGSPISQKIIYKENERFQYKCNMGYEYSERGDAVCTESGWRPLPSCEEKSCDNPYIPNGDYSPLRIKHRTGDEITYQCRNGFYPATRGNTAKCTSTGWIPAPRCTLKPCDYPDIKHGGLYHENMRRPYFPVAVGKYYSYYCDEHFETPSGSYWDHIHCTQDGWSPAVPCLRKCYFPYLENGYNQNYGRKFVQGKSIDVACHPGYALPKAQTTVTCMENGWSPTPRCIRVKTCSKSSIDIENGFISESQYTYALKEKAKYQCKLGYVTADGETSGSITCGKDGWSAQPTCIKSCDIPVFMNARTKNDFTWFKLNDTLDYECHDGYESNTGSTTGSIVCGYNGWSDLPICYERECELPKIDVHLVPDRKKDQYKVGEVLKFSCKPGFTIVGPNSVQCYHFGLSPDLPICKEQVQSCGPPPELLNGNVKEKTKEEYGHSEVVEYYCNPRFLMKGPNKIQCVDGEWTTLPVCIVEESTCGDIPELEHGWAQLSSPPYYYGDSVEFNCSESFTMIGHRSITCIHGVWTQLPQCVAIDKLKKCKSSNLIILEEHLKNKKEFDHNSNIRYRCRGKEGWIHTVCINGRWDPEVNCSMAQIQLCPPPPQIPNSHNMTTTLNYRDGEKVSVLCQENYLIQEGEEITCKDGRWQSIPLCVEKIPCSQPPQIEHGTINSSRSSQESYAHGTKLSYTCEGGFRISEENETTCYMGKWSSPPQCEGLPCKSPPEISHGVVAHMSDSYQYGEEVTYKCFEGFGIDGPAIAKCLGEKWSHPPSCIKTDCLSLPSFENAIPMGEKKDVYKAGEQVTYTCATYYKMDGASNVTCINSRWTGRPTCRDTSCVNPPTVQNAYIVSRQMSKYPSGERVRYQCRSPYEMFGDEEVMCLNGNWTEPPQCKDSTGKCGPPPPIDNGDITSFPLSVYAPASSVEYQCQNLYQLEGNKRITCRNGQWSEPPKCLHPCVISREIMENYNIALRWTAKQKLYSRTGESVEFVCKRGYRLSSRSHTLRTTCWDGKLEYPTCAKR
# Variants of: B1
# Settings: with co3_human C3, P01024
# co3_human C3, P01024, sequence (P01024 whole entry): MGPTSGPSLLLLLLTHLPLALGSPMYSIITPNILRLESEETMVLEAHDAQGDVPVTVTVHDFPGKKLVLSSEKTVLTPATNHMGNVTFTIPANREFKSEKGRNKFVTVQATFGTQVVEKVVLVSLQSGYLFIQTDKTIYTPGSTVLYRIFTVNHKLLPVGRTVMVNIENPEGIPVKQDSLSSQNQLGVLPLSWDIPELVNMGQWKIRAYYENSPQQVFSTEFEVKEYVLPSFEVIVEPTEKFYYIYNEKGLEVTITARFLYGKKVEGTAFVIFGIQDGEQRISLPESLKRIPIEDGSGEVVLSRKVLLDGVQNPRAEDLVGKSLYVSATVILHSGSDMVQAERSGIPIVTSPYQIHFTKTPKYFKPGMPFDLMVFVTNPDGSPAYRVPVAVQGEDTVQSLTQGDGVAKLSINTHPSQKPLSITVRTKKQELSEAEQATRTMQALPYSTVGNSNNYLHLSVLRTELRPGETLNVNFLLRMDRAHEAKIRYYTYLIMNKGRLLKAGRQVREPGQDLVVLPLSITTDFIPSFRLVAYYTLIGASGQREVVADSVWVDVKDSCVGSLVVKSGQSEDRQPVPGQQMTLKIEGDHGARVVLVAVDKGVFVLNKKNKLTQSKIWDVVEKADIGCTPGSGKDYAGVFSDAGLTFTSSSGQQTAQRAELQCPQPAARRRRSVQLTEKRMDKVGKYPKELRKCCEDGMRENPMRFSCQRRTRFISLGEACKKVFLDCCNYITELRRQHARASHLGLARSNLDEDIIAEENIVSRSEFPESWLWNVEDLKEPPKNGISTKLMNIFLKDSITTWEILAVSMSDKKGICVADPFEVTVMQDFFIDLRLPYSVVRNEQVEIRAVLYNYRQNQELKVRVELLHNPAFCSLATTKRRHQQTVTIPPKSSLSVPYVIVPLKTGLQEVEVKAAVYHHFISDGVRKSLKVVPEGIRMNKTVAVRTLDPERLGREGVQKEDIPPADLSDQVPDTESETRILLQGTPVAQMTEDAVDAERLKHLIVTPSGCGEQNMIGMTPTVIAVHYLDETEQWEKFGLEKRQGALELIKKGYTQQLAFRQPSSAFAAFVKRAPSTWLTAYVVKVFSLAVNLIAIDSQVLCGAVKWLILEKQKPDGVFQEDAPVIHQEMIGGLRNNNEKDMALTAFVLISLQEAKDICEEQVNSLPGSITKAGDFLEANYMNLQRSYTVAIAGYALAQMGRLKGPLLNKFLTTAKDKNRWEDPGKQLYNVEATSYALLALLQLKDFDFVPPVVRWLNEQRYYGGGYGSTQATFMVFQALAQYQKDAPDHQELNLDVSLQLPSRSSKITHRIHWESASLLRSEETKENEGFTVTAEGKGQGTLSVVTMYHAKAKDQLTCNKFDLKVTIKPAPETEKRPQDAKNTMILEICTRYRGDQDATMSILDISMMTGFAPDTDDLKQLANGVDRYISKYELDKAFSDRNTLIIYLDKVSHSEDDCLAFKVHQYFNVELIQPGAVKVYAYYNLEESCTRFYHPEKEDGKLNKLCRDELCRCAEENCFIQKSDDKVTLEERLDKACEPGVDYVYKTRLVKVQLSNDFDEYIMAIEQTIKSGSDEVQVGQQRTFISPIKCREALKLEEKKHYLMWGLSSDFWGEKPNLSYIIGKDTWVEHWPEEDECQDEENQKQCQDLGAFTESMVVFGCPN
row,effect of a mutation on the interaction,Variant
1,disrupting interaction,D1119G
2,decreasing interaction,R1215Q
3,decreasing interaction,R1182S
4,decreasing interaction,R1203S

# Reference: IntAct's records for PubMed 21317894
